Test results from patent US20110105394A1 (Novo Nordisk, published 2011).
*1 amine or outer side, *2 acyl side, *3 side chain or, on linkers, in order; H or OH if unused. Bridges are numbered along the chain shown (N, C = ends). The star is where a group is joined. C20 diacid = O=C(O)CCCCCCCCCCCCCCCCCCC(=O)*; γGlu = O=C(O)[C@H](CCC(=O)[*:2])N[*:1]

Target: T1, Amylin 3(a) receptor (human calcitonin receptor (CTa) with RAMP-3) (human) (UniProt P30988)
T1 sequence (looked up) 1: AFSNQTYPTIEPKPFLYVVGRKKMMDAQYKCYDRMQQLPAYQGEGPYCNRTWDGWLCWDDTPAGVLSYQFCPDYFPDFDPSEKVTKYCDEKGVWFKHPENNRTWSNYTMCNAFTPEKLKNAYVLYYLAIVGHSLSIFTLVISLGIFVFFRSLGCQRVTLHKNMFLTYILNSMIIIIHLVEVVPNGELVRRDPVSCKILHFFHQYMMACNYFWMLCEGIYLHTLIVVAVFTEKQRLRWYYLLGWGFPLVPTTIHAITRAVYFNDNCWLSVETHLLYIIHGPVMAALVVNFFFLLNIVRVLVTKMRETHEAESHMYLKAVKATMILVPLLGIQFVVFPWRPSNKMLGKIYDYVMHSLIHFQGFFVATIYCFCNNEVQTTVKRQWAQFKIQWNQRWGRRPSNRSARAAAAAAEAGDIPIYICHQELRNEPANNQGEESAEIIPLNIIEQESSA
T1 sequence (looked up) 2: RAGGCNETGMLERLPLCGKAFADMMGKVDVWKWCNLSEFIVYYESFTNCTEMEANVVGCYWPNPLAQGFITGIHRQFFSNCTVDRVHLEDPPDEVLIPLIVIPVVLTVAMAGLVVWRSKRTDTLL
Experiment: cell-based or functional assay

B1: N-alpha-[(S)-4-Carboxy-4-(19-carboxynonadecanoylamino)butyryl]-Glu-His-His-[Arg1,Arg17,Gln21]-pramlintide (peptide)
peptide: {C20 diacid-γGlu}-EHHRCNTATCATQRLANFLRHSSQNFGPILPPTNVGSNTY-NH2
modifications: disulfide 5-10
SMILES: CC[C@H](C)[C@H](NC(=O)[C@@H]1CCCN1C(=O)CNC(=O)[C@H](Cc1ccccc1)NC(=O)[C@H](CC(N)=O)NC(=O)[C@H](CCC(N)=O)NC(=O)[C@H](CO)NC(=O)[C@H](CO)NC(=O)[C@H](Cc1c[nH]cn1)NC(=O)[C@H](CCCNC(=N)N)NC(=O)[C@H](CC(C)C)NC(=O)[C@H](Cc1ccccc1)NC(=O)[C@H](CC(N)=O)NC(=O)[C@H](C)NC(=O)[C@H](CC(C)C)NC(=O)[C@H](CCCNC(=N)N)NC(=O)[C@H](CCC(N)=O)NC(=O)[C@@H](NC(=O)[C@H](C)NC(=O)[C@@H]1CSSC[C@H](NC(=O)[C@H](CCCNC(=N)N)NC(=O)[C@H](Cc2c[nH]cn2)NC(=O)[C@H](Cc2c[nH]cn2)NC(=O)[C@H](CCC(=O)O)NC(=O)CC[C@H](NC(=O)CCCCCCCCCCCCCCCCCCC(=O)O)C(=O)O)C(=O)N[C@@H](CC(N)=O)C(=O)N[C@@H]([C@@H](C)O)C(=O)N[C@@H](C)C(=O)N[C@@H]([C@@H](C)O)C(=O)N1)[C@@H](C)O)C(=O)N[C@@H](CC(C)C)C(=O)N1CCC[C@H]1C(=O)N1CCC[C@H]1C(=O)N[C@H](C(=O)N[C@@H](CC(N)=O)C(=O)N[C@H](C(=O)NCC(=O)N[C@@H](CO)C(=O)N[C@@H](CC(N)=O)C(=O)N[C@H](C(=O)N[C@@H](Cc1ccc(O)cc1)C(N)=O)[C@@H](C)O)C(C)C)[C@@H](C)O
Which Potency Luciferase does the source give for B1 here?
Its Potency Luciferase is 0.1 nM.
